{"source": "the supplement of paper PMC10567573", "parents": {"B1": {"name": "CCDC70 (parent)", "chain": "FSFKVSRWMGLACFRSLAASSPSI"}, "B2": {"name": "FBXO3 (parent)", "chain": "GGFPIIRDQIFRYVHDPECVATTG"}}, "data": [{"variants_of": "B1", "assay": "protein stability index of a GFP-peptide fusion (GPS, HEK-293T) (PSI 1-6); higher = more stable", "conditions": "c terminus: a fixed tail appended", "values": [{"variant": "FSFKVSRWMGLACFRALAASSPSI", "protein stability index": 3.04}, {"variant": "FSFKVSRWMGLACFRFLAASSPSI", "protein stability index": 2.55}, {"variant": "FSFKVSRWMGLACFRRLAASSPSI", "protein stability index": 3.88}, {"variant": "FSFKVSRWMGLACFRILAASSPSI", "protein stability index": 1.98}, {"variant": "FSFKVSRWMGLACFRSLAHSSPSI", "protein stability index": 2.03}, {"variant": "FSFKVSRWMGLACFRSLALSSPSI", "protein stability index": 3.58}, {"variant": "FSFKVSRWMGLACFRSLACSSPSI", "protein stability index": 1.8}, {"variant": "FSFKVSRWMGLACFRSLAESSPSI", "protein stability index": 3.77}, {"variant": "FSFKVSRWMGLACFRSLAVSSPSI", "protein stability index": 3.78}, {"variant": "FSFKVSRWMGLACFRSLAASSPSF", "protein stability index": 2.56}, {"variant": "FSFKVSRWMGLACFRSLAASSPSY", "protein stability index": 3.49}, {"variant": "FSFKVSRWMGLACFRSLAASSPSG", "protein stability index": 2.36}, {"variant": "FSFKVSRWMGLACFRSLAASSPNI", "protein stability index": 3.56}, {"variant": "FSFKVSRWMGLACFRSLAASSPQI", "protein stability index": 3.59}, {"variant": "FSFKVSRWMGLACFRSLAASSPTI", "protein stability index": 2.67}, {"variant": "FSFKVSRWMGLACFRSLAASSPDI", "protein stability index": 3.88}, {"variant": "FSFKVSCWMGLACFRSLAASSPSI", "protein stability index": 3.09}, {"variant": "FSFKVSGWMGLACFRSLAASSPSI", "protein stability index": 1.65}, {"variant": "FSFKVSRWMGLACFRSLEASSPSI", "protein stability index": 2.71}, {"variant": "FSFKVSRWMGLACFRSLDASSPSI", "protein stability index": 2.71}, {"variant": "FSFKVSRWMGLACFRSLLASSPSI", "protein stability index": 2.9}, {"variant": "FSFKVSRWMGLACFRSLSASSPSI", "protein stability index": 2.69}, {"variant": "FSFKVSRWMGLACFRSRAASSPSI", "protein stability index": 2.19}, {"variant": "FSFKVSRWMGLACFRSHAASSPSI", "protein stability index": 2.29}, {"variant": "FSFKVSRWMGLACFRSTAASSPSI", "protein stability index": 2.3}, {"variant": "FSFKVSRWMGLACFRSPAASSPSI", "protein stability index": 3.88}, {"variant": "FSFKVCRWMGLACFRSLAASSPSI", "protein stability index": 2.82}, {"variant": "FSFKVYRWMGLACFRSLAASSPSI", "protein stability index": 2.88}, {"variant": "FSFKVARWMGLACFRSLAASSPSI", "protein stability index": 2.99}, {"variant": "FSFKVPRWMGLACFRSLAASSPSI", "protein stability index": 2.51}, {"variant": "FSFKLSRWMGLACFRSLAASSPSI", "protein stability index": 2.22}, {"variant": "FSFKASRWMGLACFRSLAASSPSI", "protein stability index": 3.24}, {"variant": "FSFKFSRWMGLACFRSLAASSPSI", "protein stability index": 2.74}, {"variant": "FSFKVSRWMGLAPFRSLAASSPSI", "protein stability index": 1.82}, {"variant": "FSFKVSRWMGMACFRSLAASSPSI", "protein stability index": 3.73}, {"variant": "FSFKVSRWMGFACFRSLAASSPSI", "protein stability index": 3.35}, {"variant": "FSFKVSRWMGLACFRSLAASCPSI", "protein stability index": 2.05}, {"variant": "FSFKVSRWMGLACFRSLAASKPSI", "protein stability index": 2.57}, {"variant": "FSFKVSRWMGLACFRSLAASPPSI", "protein stability index": 3.96}, {"variant": "FSFKVSRWMGLACFRSLAASGPSI", "protein stability index": 2.62}, {"variant": "FSFKVSRWMGLACFRSLAASNPSI", "protein stability index": 2.04}, {"variant": "FSFKVSRWMGLACTRSLAASSPSI", "protein stability index": 1.31}, {"variant": "FSFKVSRWMGLACVRSLAASSPSI", "protein stability index": 3.5}, {"variant": "FSAKVSRWMGLACFRSLAASSPSI", "protein stability index": 3.33}, {"variant": "FSKKVSRWMGLACFRSLAASSPSI", "protein stability index": 1.39}, {"variant": "FSFKVSRWMDLACFRSLAASSPSI", "protein stability index": 3.79}, {"variant": "FSFKVSRWMELACFRSLAASSPSI", "protein stability index": 3.35}, {"variant": "FQFKVSRWMGLACFRSLAASSPSI", "protein stability index": 3.39}, {"variant": "FTFKVSRWMGLACFRSLAASSPSI", "protein stability index": 2.69}, {"variant": "FSFKVSRWMGLQCFRSLAASSPSI", "protein stability index": 3.81}, {"variant": "FSFKVSRWMGLICFRSLAASSPSI", "protein stability index": 3.43}, {"variant": "FSFKVSRWMGLACFISLAASSPSI", "protein stability index": 2.04}, {"variant": "FSFKVSRWMGLACFESLAASSPSI", "protein stability index": 3.26}, {"variant": "FSFKVSRWMGLACFDSLAASSPSI", "protein stability index": 2.71}, {"variant": "FSFKVSRWMGLACFRSLAAKSPSI", "protein stability index": 3.32}, {"variant": "FSFKVSRWMGLACFRSLAADSPSI", "protein stability index": 3.1}, {"variant": "FSFKVSRWMGLACFRSLAASSWSI", "protein stability index": 3.4}, {"variant": "FSFKVSRWMGLACFRSLAASSKSI", "protein stability index": 2.38}, {"variant": "CSFKVSRWMGLACFRSLAASSPSI", "protein stability index": 2.38}, {"variant": "LSFKVSRWMGLACFRSLAASSPSI", "protein stability index": 4.16}, {"variant": "RSFKVSRWMGLACFRSLAASSPSI", "protein stability index": 2.08}, {"variant": "FSFEVSRWMGLACFRSLAASSPSI", "protein stability index": 1.92}, {"variant": "FSFYVSRWMGLACFRSLAASSPSI", "protein stability index": 3.24}, {"variant": "FSFPVSRWMGLACFRSLAASSPSI", "protein stability index": 1.65}, {"variant": "FSFLVSRWMGLACFRSLAASSPSI", "protein stability index": 3.31}, {"variant": "FSFKVSRYMGLACFRSLAASSPSI", "protein stability index": 3.02}, {"variant": "FSFKVSRGMGLACFRSLAASSPSI", "protein stability index": 3.55}, {"variant": "FSFKVSRVMGLACFRSLAASSPSI", "protein stability index": 3.21}, {"variant": "FSFKVSRWKGLACFRSLAASSPSI", "protein stability index": 2.21}, {"variant": "FSFKVSRWYGLACFRSLAASSPSI", "protein stability index": 3.2}]}, {"variants_of": "B2", "assay": "protein stability index of a GFP-peptide fusion (GPS, HEK-293T) (PSI 1-6); higher = more stable", "conditions": "c terminus: a fixed tail appended", "values": [{"variant": "GGLPIIRDQIFRYVHDPECVATTG", "protein stability index": 1.94}, {"variant": "GGNPIIRDQIFRYVHDPECVATTG", "protein stability index": 2.78}, {"variant": "GGCPIIRDQIFRYVHDPECVATTG", "protein stability index": 2.14}, {"variant": "GGMPIIRDQIFRYVHDPECVATTG", "protein stability index": 2.1}, {"variant": "GGQPIIRDQIFRYVHDPECVATTG", "protein stability index": 2.58}, {"variant": "GGPPIIRDQIFRYVHDPECVATTG", "protein stability index": 2.76}, {"variant": "GGDPIIRDQIFRYVHDPECVATTG", "protein stability index": 3.2}, {"variant": "GGVPIIRDQIFRYVHDPECVATTG", "protein stability index": 2.38}, {"variant": "GGKPIIRDQIFRYVHDPECVATTG", "protein stability index": 2.87}, {"variant": "GGRPIIRDQIFRYVHDPECVATTG", "protein stability index": 2.59}, {"variant": "GGWPIIRDQIFRYVHDPECVATTG", "protein stability index": 2.28}, {"variant": "GGYPIIRDQIFRYVHDPECVATTG", "protein stability index": 1.57}, {"variant": "GGAPIIRDQIFRYVHDPECVATTG", "protein stability index": 3.13}, {"variant": "GGIPIIRDQIFRYVHDPECVATTG", "protein stability index": 2.29}, {"variant": "GGEPIIRDQIFRYVHDPECVATTG", "protein stability index": 2.9}, {"variant": "GGHPIIRDQIFRYVHDPECVATTG", "protein stability index": 2.21}, {"variant": "GGTPIIRDQIFRYVHDPECVATTG", "protein stability index": 3.17}, {"variant": "GGSPIIRDQIFRYVHDPECVATTG", "protein stability index": 2.59}, {"variant": "GGGPIIRDQIFRYVHDPECVATTG", "protein stability index": 2.55}, {"variant": "GGFPIICDQIFRYVHDPECVATTG", "protein stability index": 2.35}, {"variant": "GGFPIIADQIFRYVHDPECVATTG", "protein stability index": 3.41}, {"variant": "GGFPIIEDQIFRYVHDPECVATTG", "protein stability index": 3.79}, {"variant": "GGFPIIGDQIFRYVHDPECVATTG", "protein stability index": 2.99}, {"variant": "GGFPIIFDQIFRYVHDPECVATTG", "protein stability index": 1.67}]}]}
